In this assay the target is Bovine serum albumin (bovine) (UniProt P02769).

For the substance “GluC protease (Mass Spectrometry Grade, Promega V1651) (from UniProt P0C1U8) (enzyme)”, the BSA sequence coverage after digestion (nLC-MS/MS) (% BSA sequence coverage) came out at 93.1. Consider “Trypsin/LysC protease mix (Mass Spectrometry Grade, Promega V5072) (pool or library)”, for which the BSA sequence coverage after digestion (nLC-MS/MS) (% BSA sequence coverage) was found to be 91.3.

Values taken from patent US20230027592A1.
